The assay concerns the target T1, CAR comprising the anti-CD19 scFv FMC63 (SEQ ID NO: 1).
T1 construct: also called FMC63 CAR; CAR presenting the anti-CD19 scFv FMC63; not shown: rest of the CAR (hinge, transmembrane and signalling domains) is not described for the constructs used
The assay can be described thus: immunohistochemistry on fixed cell pellets of CAR T cells presenting the FMC63 scFv, PBMC as control. The method, then: Several antibodies disclosed herein, (Clones 7 and 13) were assessed with respect to their ability to function as reagents in immunohistochemistry (IHC) studies. To create the fixed cell pellets for IHC staining, ˜2e6 CAR T cells presenting the anti-CD19 scFv FMC63 (SEQ ID NO: 1) were centrifuged and washed with PBS. The cells were resuspended in PBS containing 0.45% paraformaldehyde (PFA) and incubated on a shaking platform for 2 hours at room temperature. After the incubation, the cells were washed once more with PBS and resuspended in PBS with 5% BSA.

T1 sequence (chain, as listed by the source): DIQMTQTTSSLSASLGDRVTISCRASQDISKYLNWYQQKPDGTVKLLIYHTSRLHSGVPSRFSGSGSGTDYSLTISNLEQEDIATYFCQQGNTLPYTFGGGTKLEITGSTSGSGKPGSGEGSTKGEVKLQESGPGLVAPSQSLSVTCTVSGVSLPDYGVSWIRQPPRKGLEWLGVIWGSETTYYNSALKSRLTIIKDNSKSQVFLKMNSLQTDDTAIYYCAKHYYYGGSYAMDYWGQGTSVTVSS

B1: Clone 7 (antibody, V domains shown)
VH: QEQLEESGGDLVKPGGTLTVTCKASGFSFSNNGICWVRQAPGKGLEWIGCLYVGSSDTTYYASWAKGRFTISKSSSTTVTLQMTSLTVADTATYFCTINLGLWGPGTLVTVSS
VL: AIVVTQTPSSKSVPVGGTVTINCQASESVYNSDWLAWYQQKPGQPPKQLIYAASTLASGVPSRFKGSGSGTQFTLTISDVVCDDAATYYCAGYKSSSTDGIAFGGGTEVVVKG
notes: Rabbit monoclonal antibody from a hybridoma; also called antibody Clone 7
Regarding B1, the binding result is on record as “binds”.

These data come from patent US20200354475A1 (KITE PHARMA, published 2020).
